Laboratory results from patent US6906033.

Biological target: Plasmin
Assay: enzyme inhibition

Row | Substance | Ki
1 | Aprotinin | 230 pM
2 | Aprotinin R15, S42 | 170 pM
